The data set deals with the molecule itself. Kind of data set: western blot of cell lysates. (In general: A western blot detects proteins with antibodies after separation by electrophoresis.)

The values that follow come from article PMC483052 (Journal of Neuroinflammation, 2004).

Usually stoichiometry N stands for a count of units in the complex or per binding partner.

B1: serine racemase (enzyme, rat (endogenous in primary microglia), UniProt Q76EQ0 1-333, looked up)
chain: MCAQYCISFADVEKAHLNIQDSVHLTPVLTSSILNQIAGRNLFFKCELFQKTGSFKIRGALNAIRGLIPDTLEGKPKAVVTHSSGNHGQALTYAAKLEGIPAYIVVPQTAPNCKKLAIQAYGASIVYSEPSDESRENVAQRIIQETEGILVHPNQEPAVIAGQGTIALEVLNQVPLVDALVVPVGGGGMVAGIAITIKTLKPSVKVYAAEPSNADDCYQSKLKGELTPNLHPPETIADGVKSSIGLNTWPIIRDLVDDVFTVTEDEIKYATQLVWERMKLLIEPTAGVGLAAVLSQHFQTVSPEVKNICIVLSGGNVDLTSLSWVKQAERPAP
As for B1, the “stoichiometry N” value came out at 2.
